Assay results taken from publication PMC8187606, “Biophysical and structural studies reveal marginal stability of a crucial hydrocarbon biosynthetic enzyme acyl ACP reductase” (Scientific Reports, 2021).

Target: the molecule itself
Experiment: SEC; Superdex 200 Increase 10/300 GL; AAR 1.5 mg/mL; 50 mM Tris, 100 mM NaCl, 1 mM DTT, pH 7.4; without GdnHCl; oligomer of unstated size

B1: Acyl-ACP reductase (AAR) from Synechococcus elongatus PCC 7942, 6-His tagged recombinant (enzyme)
chain: MFGLIGHLTSLEQARDVSRRMGYDEYADQGLEFWSSAPPQIVDEITVTSATGKVIHGRYIESCFLPEMLAARRFKTATRKVLNAMSHAQKHGIDISALGGFTSIIFENFDLASLRQVRDTTLEFERFTTGNTHTAYVICRQVEAAAKTLGIDITQATVAVVGATGDIGSAVCRWLDLKLGVGDLILTARNQERLDNLQAELGRGKILPLEAALPEADFIVWVASMPQGVVIDPATLKQPCVLIDGGYPKNLGSKVQGEGIYVLNGGVVEHCFDIDWQIMSAAEMARPERQMFACFAEAMLLEFEGWHTNFSWGRNQITIEKMEAIGEASVRHGFQPLALAI
notes: Acyl-ACP reductase (AAR), Synechococcus elongatus PCC 7942, codon-optimized aar gene in pQE30; domains described as NTD 1-130, mid-domain 131-264, CTD 265-341; also called Acyl-acyl carrier protein reductase; source: E. coli M15 (pQE30AAR), purified from the soluble fraction (Ni-NTA, gel filtration)
binding result: binds
